Reference: IntAct's records for PubMed 33965375

Molecular target: spike_sars2 S (UniProt P0DTC2)

With “Endoplasmic reticulum chaperone BiP (Homo sapiens), P11021 R197H” the “effect of a mutation on the interaction” value was “decreasing interaction strength”.
With “Endoplasmic reticulum chaperone BiP (Homo sapiens), P11021 G227D” the “effect of a mutation on the interaction” value was “decreasing interaction strength”.
